{"source": "patent US20220143148A1", "about": "“COMPOSITIONS AND METHODS FOR MODULATING CGRP SIGNALING TO REGULATE INTESTINAL INNATE LYMPHOID CELLS” (The Broad Institute, Inc., priority 2019, published 2022)", "system": "small intestinal immune cells", "assay": "Droplet-based scRNA-seq of small intestinal immune cells (LP and PP), OVA vs PBS, clustering and differential expression", "assay_type": "in vivo, mouse", "details": "cluster ID 12, LP; for LN (average fold change): OVA vs PBS", "from_the_text": "To comprehensively characterize small intestinal immune cells, Applicants generated scRNA-Seq profiles for 58,067 immune cells collected from lamina propria (LP) and Peyer's patch (PP) regions at steady state and after induction of a type 2 inflammatory reaction to ovalbumin (OVA) (Brandt et al., 2003) (FIGS. 1A and 8A). To ensure sufficient representation of rare cells, Applicants combined a normalization strategy—removing by flow sorting either a portion of IgD+ naïve B cells, which are the most abundant cell type in PPs, or all CD19+ and CD3+ T cells (FIG. 8B, Methods)—with profiling of a sufficiently large number of cells number (P>0.99 to recover at least 15 cells from each cluster, Methods) by massively parallel scRNA-seq (Haber et al., 2017) (Methods). Applicants obtained 36,797 and 21,270 high quality cells passing initial filtering (Methods) from PP and LP regions, respectively.\nOverall, Applicants annotated 27 cell subsets across the two compartments, spanning T cells, B cells, ILCs, dendritic cells (DCs), myeloid cells and stromal cells, in frequencies ranging from 0.07% to 14%. Briefly, Applicants first partitioned the cells from the PP regions by unsupervised clustering (Methods) into 46 clusters, retained the 97% of cells that were robustly assigned cell identities in each cluster (Methods), assigned the cells from the LP regions to the 46 clusters using a classifier (Methods), and visualized the data with scvis (Ding et al., 2018), a deep generative model-based method (FIGS. 1B and 8C, Methods). Next, Applicants identified genes that were differentially expressed between the cells in each cluster and the remaining cells (Table 1, Methods), as well as between pairs of clusters (Table 2), to elucidate identities of similar cell types/states. Applicants excluded from downstream analysis clusters mostly consisting of contaminants from epithelium, likely doublets, or cells with a small number of Unique Molecular Identifiers (UMIs) (FIGS. 1C and 8D), or lacking distinct markers (Methods). Altogether, Applicants retained 27 clusters spanning 85% of the cells and each associated with distinct marker genes (FIG. 8E, Methods).\nTo induce allergic reaction to OVA, 6 to 7 weeks old mice were sensitized twice, two weeks apart, with 50 μg of OVA plus 1 mg of aluminum potassium sulfate adjuvant via intraperitoneal injection. Two weeks later, mice were orally administered with 50 mg of OVA on every other day for a total of five times. 1 μg of α-CGRP peptide was administered simultaneously when indicated. Mice were deprived of food for 3-4 hours in cages with wood chip bedding for limiting antigen degradation in the stomach before each intragastric challenge.\nIsolation of cells from Peyer's patches (PPs). Peyer's patches (PPs) were carefully dissected from the small intestine under a stereo microscope using a fine scissor, pierced once with a fine forcep. Tissues were digested in freshly made digestion buffer (RPMI-1640 containing 100 μg/ml Liberase™ and 50 μg/ml DNase I at 37° C. on a roto-mixer. After 15 min, tissues were very gently mixed using a 1 ml pipette. The supernatant was collected and added to ice-cold MACS buffer (pH 7.4; PBS plus 2% FCS and 2 mM EDTA). Pre-warmed (37° C.) fresh digestion buffer was added to the remaining tissues. After rotation at 37° C. for 15 min, the mixture was vigorously mixed using a 1 ml pipette for 1 min. Supernatants from the two steps were combined and passed through 70 μm filters and stained for FACS (below).\nIsolation of cells from the lamina propria (LP). The small intestines were opened longitudinally and washed in ice-cold PBS. For scRNA-seq, roughly 0.5 cm of fragments from each of the distal, middle and proximal regions without visible PPs were collected. Epithelial cells were dissociated by tissue rotation in pre-warmed (37° C.) PBS containing 10 mM EDTA at 37° C. for 15 min, followed by additional incubation on ice for 15 min. Tissues were then shaken vigorously. […]"}
{"molecule": "OVA (protein, UniProt P01012 2-386, looked up) Ovalbumin: GSIGAASMEFCFDVFKELKVHHANENIFYCPIAIMSALAMVYLGAKDSTRTQINKVVRFDKLPGFGDSIEAQCGTSVNVHSSLRDILNQITKPNDVYSFSLASRLYAEERYPILPEYLQCVKELYRGGLEPINFQTAADQARELINSWVESQTNGIIRNVLQPSSVDSQTAMVLVNAIVFKGLWEKAFKDEDTQAMPFRVTEQESKPVQMMYQIGLFRVASMASEKMKILELPFASGTMSMLVLLPDEVSGLEQLESIINFEKLTEWTSSNVMEERKIKVYLPRMKMEEKYNLTSVLMAMGITDVFSSSANLSGISSAESLKISQAVHAAHAEINEAGREVVGSAEAGVDAASVSEEFRADHPFLFCIKHIATNAVLFFGRCVSP", "values": [{"measurement": "LN (average fold change)", "setting": "gene Pgm2l1", "value": "−0.966"}, {"measurement": "percentage of expressing cells in OVA-treated group", "setting": "gene Pnrc1", "value": 0.583}, {"measurement": "LN (average fold change)", "setting": "gene Pnrc1", "value": "−0.457"}, {"measurement": "percentage of expressing cells in OVA-treated group", "setting": "gene Pole4", "value": 0.604}, {"measurement": "LN (average fold change)", "setting": "gene Pole4", "value": 0.415}, {"measurement": "percentage of expressing cells in OVA-treated group", "setting": "gene Polr2e", "value": 0.091}, {"measurement": "LN (average fold change)", "setting": "gene Polr2e", "value": "−1.019"}, {"measurement": "percentage of expressing cells in OVA-treated group", "setting": "gene Prdx6", "value": 0.507}, {"measurement": "LN (average fold change)", "setting": "gene Prdx6", "value": 0.908}, {"measurement": "percentage of expressing cells in OVA-treated group", "setting": "gene Psap", "value": 0.299}, {"measurement": "LN (average fold change)", "setting": "gene Psap", "value": "−0.562"}, {"measurement": "percentage of expressing cells in OVA-treated group", "setting": "gene Psmb8", "value": 0.49}, {"measurement": "LN (average fold change)", "setting": "gene Psmb8", "value": "−0.441"}, {"measurement": "percentage of expressing cells in OVA-treated group", "setting": "gene Psmb10", "value": 0.219}, {"measurement": "LN (average fold change)", "setting": "gene Psmb10", "value": "−0.598"}, {"measurement": "percentage of expressing cells in OVA-treated group", "setting": "gene Ptp4a1", "value": 0.349}, {"measurement": "LN (average fold change)", "setting": "gene Ptp4a1", "value": "−0.514"}, {"measurement": "percentage of expressing cells in OVA-treated group", "setting": "gene Ramp3", "value": 0.561}, {"measurement": "LN (average fold change)", "setting": "gene Ramp3", "value": 0.516}, {"measurement": "percentage of expressing cells in OVA-treated group", "setting": "gene Rheb", "value": 0.536}, {"measurement": "LN (average fold change)", "setting": "gene Rheb", "value": 0.631}, {"measurement": "percentage of expressing cells in OVA-treated group", "setting": "gene Rnf19b", "value": 0.279}, {"measurement": "LN (average fold change)", "setting": "gene Rnf19b", "value": 0.971}, {"measurement": "percentage of expressing cells in OVA-treated group", "setting": "gene Rsrp1", "value": 0.24}, {"measurement": "LN (average fold change)", "setting": "gene Rsrp1", "value": "−0.708"}, {"measurement": "percentage of expressing cells in OVA-treated group", "setting": "gene Saraf", "value": 0.304}, {"measurement": "LN (average fold change)", "setting": "gene Saraf", "value": "−0.533"}, {"measurement": "percentage of expressing cells in OVA-treated group", "setting": "gene Scp2", "value": 0.382}, {"measurement": "LN (average fold change)", "setting": "gene Scp2", "value": "−0.568"}, {"measurement": "percentage of expressing cells in OVA-treated group", "setting": "gene Sepp1", "value": 0.254}, {"measurement": "LN (average fold change)", "setting": "gene Sepp1", "value": "−0.824"}, {"measurement": "percentage of expressing cells in OVA-treated group", "setting": "gene Serp1", "value": 0.554}, {"measurement": "LN (average fold change)", "setting": "gene Serp1", "value": "−0.529"}, {"measurement": "percentage of expressing cells in OVA-treated group", "setting": "gene Srsf7", "value": 0.251}, {"measurement": "LN (average fold change)", "setting": "gene Srsf7", "value": "−0.443"}, {"measurement": "percentage of expressing cells in OVA-treated group", "setting": "gene Tgfb1", "value": 0.457}, {"measurement": "LN (average fold change)", "setting": "gene Tgfb1", "value": 0.625}, {"measurement": "percentage of expressing cells in OVA-treated group", "setting": "gene Tgoln1", "value": 0.215}, {"measurement": "LN (average fold change)", "setting": "gene Tgoln1", "value": "−0.572"}, {"measurement": "percentage of expressing cells in OVA-treated group", "setting": "gene Tiparp", "value": 0.18}, {"measurement": "LN (average fold change)", "setting": "gene Tiparp", "value": "−0.904"}, {"measurement": "percentage of expressing cells in OVA-treated group", "setting": "gene Tmem64", "value": 0.41}, {"measurement": "LN (average fold change)", "setting": "gene Tmem64", "value": 0.605}, {"measurement": "percentage of expressing cells in OVA-treated group", "setting": "gene Tmsb4x", "value": 1}, {"measurement": "LN (average fold change)", "setting": "gene Tmsb4x", "value": 0.195}, {"measurement": "percentage of expressing cells in OVA-treated group", "setting": "gene Tmsb10", "value": 0.942}, {"measurement": "LN (average fold change)", "setting": "gene Tmsb10", "value": "−0.240"}, {"measurement": "percentage of expressing cells in OVA-treated group", "setting": "gene Tnfaip3", "value": 0.534}, {"measurement": "LN (average fold change)", "setting": "gene Tnfaip3", "value": "−0.487"}, {"measurement": "percentage of expressing cells in OVA-treated group", "setting": "gene Tnfaip8", "value": 0.518}, {"measurement": "LN (average fold change)", "setting": "gene Tnfaip8", "value": 0.740}, {"measurement": "percentage of expressing cells in OVA-treated group", "setting": "gene Tpm4", "value": 0.394}, {"measurement": "LN (average fold change)", "setting": "gene Tpm4", "value": 0.964}, {"measurement": "percentage of expressing cells in OVA-treated group", "setting": "gene Tspan13", "value": 0.699}, {"measurement": "LN (average fold change)", "setting": "gene Tspan13", "value": "−0.366"}, {"measurement": "percentage of expressing cells in OVA-treated group", "setting": "gene Tspan32", "value": 0.073}, {"measurement": "LN (average fold change)", "setting": "gene Tspan32", "value": "−0.997"}, {"measurement": "percentage of expressing cells in OVA-treated group", "setting": "gene Ubc", "value": 0.303}, {"measurement": "LN (average fold change)", "setting": "gene Ubc", "value": "−0.542"}, {"measurement": "percentage of expressing cells in OVA-treated group", "setting": "gene Ucp2", "value": 0.612}, {"measurement": "LN (average fold change)", "setting": "gene Ucp2", "value": 0.519}, {"measurement": "percentage of expressing cells in OVA-treated group", "setting": "gene Uhrf2", "value": 0.296}, {"measurement": "LN (average fold change)", "setting": "gene Uhrf2", "value": "−0.506"}, {"measurement": "percentage of expressing cells in OVA-treated group", "setting": "gene Uqcrh", "value": 0.765}, {"measurement": "LN (average fold change)", "setting": "gene Uqcrh", "value": 0.450}, {"measurement": "percentage of expressing cells in OVA-treated group", "setting": "gene Usmg5", "value": 0.509}, {"measurement": "LN (average fold change)", "setting": "gene Usmg5", "value": "−0.414"}, {"measurement": "percentage of expressing cells in OVA-treated group", "setting": "gene Vmp1", "value": 0.239}, {"measurement": "LN (average fold change)", "setting": "gene Vmp1", "value": 1.019}, {"measurement": "percentage of expressing cells in OVA-treated group", "setting": "gene Zc3h12a", "value": 0.157}, {"measurement": "LN (average fold change)", "setting": "gene Zc3h12a", "value": "−0.866"}, {"measurement": "percentage of expressing cells in OVA-treated group", "setting": "gene Zfp36l2", "value": 0.49}, {"measurement": "LN (average fold change)", "setting": "gene Zfp36l2", "value": 0.453}, {"measurement": "percentage of expressing cells in OVA-treated group", "setting": "gene Zrsr1", "value": 0.242}, {"measurement": "LN (average fold change)", "setting": "gene Zrsr1", "value": "−0.652"}]}
